Variants at the floor of the assay were thinned out.
B1: TPR 5TU (parent)
chain: GGAUCUUCUCGAUCUAACAAAAAAGACAAAUCUGCCACAAAGCUUGAGAGCAUCUUCGGAUGCAGAGGCGGCAGCCUUCGGUGGCGCGAUAGCGCCAACGUUCUCAACUAUGACACGCAAAACGCGUGCUCCGUUGAAUGGAGUUUAUCAUG

Variants of: B1
Assay: polymerase ribozyme fitness, log enrichment relative to wild type (log ratio); higher = more active; in vitro selection for triplet polymerase activity
Method in brief: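 Mutant libraries were PCR-built and transcribed for each subunit of a heterodimeric triplet polymerase ribozyme and selected for one round in triplicate at −7 °C, frozen, before gel excision of extended constructs and streptavidin-bead capture. Input and output libraries were Illumina-sequenced, keeping genotypes with ≥10 input reads and ≥1 read per output. Fitness is a logarithmic ratio of genotype to wild-type enrichment, in base 2, using inverse-variance-weighted replicate averages.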

| Variant | polymerase ribozyme fitness (log ratio) |
| --- | --- |
| U9C A22U U53G C79U | ≤ -4.2 |
| A17U C35A A47U A66C A73U G86A A91C U109G | ≤ -4.2 |
| G62A A66G G86U A121G U127C | ≤ -4.2 |
| C85G G141C | -3.06 |
| U9C A12C C57U C63U G74C A119G U146G | ≤ -4.2 |
| U44A U61G A66C A91U C132U G141C | ≤ -4.2 |
| A12U C93A | -1.26 |
| C54G C72U U82A U90G G141C | ≤ -4.2 |
| C76U C96U | 0.0365 |
| C76U G84A C85A C129U U134C | ≤ -4.2 |
| A19C G70C C103G | ≤ -4.2 |
| U6G U53A | -0.949 |
| C54A C105U | -0.396 |
| A49G A52G G68U C69G G100C | ≤ -4.2 |
| G94C U101C | -0.185 |
| A26U C103A C114U | ≤ -4.2 |
| C57U G140C | -3.55 |
| U55A A89U U102G | ≤ -4.2 |
| A12U A28U U44G C93A U102A | ≤ -4.2 |
| U4A C5G C8G U9G U53A C54A C72A C79A C85U A115C U139A G140C | ≤ -4.2 |
| C5G A39G G88A C131G | ≤ -4.2 |
| A37G C96A U102A C131U G136U | ≤ -4.2 |
| A19G G46C A107U A120C C129U | ≤ -4.2 |
| A47G U78A G81U G86C U127G A138C | ≤ -4.2 |

| Variant | polymerase ribozyme fitness (log ratio) |
| --- | --- |
| G50C A52C | -2.71 |
| A22G A29U G50A U56G C87U C118U | ≤ -4.2 |
| U13G U31C C96A | -0.864 |
| A19G A26C U144G | -2.17 |
| C54G C96A | -2.41 |
| C8G G42C G50C A91C C93A | ≤ -4.2 |
| U55G G68C A107C C125A U151G | ≤ -4.2 |
| A40U A60C | -1.31 |
| U45G A66U U77C A107G G117U | ≤ -4.2 |
| C5G A23G G50C A52C C69G A119G | ≤ -4.2 |
| G46U G83U A91U A106U U148C | ≤ -4.2 |
| A20G C36G G83A A91G A142G | ≤ -4.2 |
| A40U A41C C96U | -0.566 |
| A47C A73G | -0.266 |
| C10U A47G G94U A147G | ≤ -4.2 |
| U9G A20C C32G A89C U144A | ≤ -4.2 |
| C14G A19G G46A C72G G84U | ≤ -4.2 |
| A12C A29C C85A G133A | ≤ -4.2 |
| U55G U127C | -1.36 |
| C76G G84U C116A | ≤ -4.2 |
| C96G U109G G124C | -2.62 |
| C18U C85G | -2.3 |
| U13C A52G U102C C118G | -3.18 |
| A21C A37U C76U C87U | -1.62 |

| Variant | polymerase ribozyme fitness (log ratio) |
| --- | --- |
| A19U A23C C27A C85A | ≤ -4.2 |
| A39C A40C A49C | ≤ -4.2 |
| A12G A52C C93U A98U G124A | -2 |
| A24G U53A C96G A122G A142C | ≤ -4.2 |
| A26C A107G | ≤ -4.2 |
| G50A C75U C76U C114G G152U | -4.02 |
| A47C C95U C96U C118U C131U | -1.83 |
| A21U C96U A113U | -2.6 |
| U7A C14G C32U A106G U148C | ≤ -4.2 |
| G50C C93U | -4.15 |
| A60G C95U | -0.927 |
| A21C G25C U53A | -3.09 |
| G48C C63U A142G | -1.03 |
| A24U U55C C85A | -1.34 |
| U82G A98G G117A A122U | 0.376 |
| C76U U135G | -2.79 |
| U53A G58C A150U | 0.575 |
| A16G A73U G94U | -2.22 |
| A16G G126A G143A | -3.34 |
| C57U | -0.0371 |
| A30G G46A A107U | -4.03 |
| A39G G80A G126U A138G | ≤ -4.2 |
| A24U A49G A52C U53A U55A C69A | ≤ -4.2 |
| U31G G58A C85A C114G A115U | -4.05 |

| Variant | polymerase ribozyme fitness (log ratio) |
| --- | --- |
| G88A G136A | -3.83 |
| C57G C75U C108A A110G | ≤ -4.2 |
| A107G U127C A138C | ≤ -4.2 |
| U15G C96A | -0.302 |
| A47G A49U C103G | ≤ -4.2 |
| A41U C63U U102C | -3.6 |
| A21G G50C G71C C79A C95G A121U U127G G136U U139C A142C U145G | ≤ -4.2 |
| A3G A29G A39G G86U C99G | ≤ -4.2 |
| U78A C95G U127C U130G U139G | ≤ -4.2 |
| U7C U56A G94A A98G | -3.41 |
| C76A G84A U134G | -2.67 |
| U4C G11U A49G U61A G80C A98G G141A | ≤ -4.2 |
| C5G G46A G88A C95G U102G U135C A147C | ≤ -4.2 |
| C132U | -0.687 |
| U6C A39C A66G U90A C93A C99A G100C C103A C116G A147C | ≤ -4.2 |
| A52G C93U C116U | -1.48 |
| G50U A66U C69G U135C | ≤ -4.2 |
| G59U G86A C118G | -2.48 |
| C5G U78C G84A G136U | -3.39 |
| U13C A22U A24U U53A A98U | -1.6 |
| U15G A21C A49C C54U G86A | ≤ -4.2 |
| A29U C96U | -3.19 |
| G42A G59A A66C A73U U78A C87G U146G C149A | ≤ -4.2 |
| G86U U101C C118U | -1.56 |

| Variant | polymerase ribozyme fitness (log ratio) |
| --- | --- |
| C35G C87U C118U | -4.18 |
| A20C U31G A49C A52C U53C | ≤ -4.2 |
| A3C A60G | -0.264 |
| A39G U55A G71A G92C C96U C131U C149A | ≤ -4.2 |
| U61A C125A | -2.73 |
| C96U A113G G136C | -3.93 |
| C54U A60U C87U G94U U101G U109C C116U C118U G152C | ≤ -4.2 |
| A23G U130C A138U | -4.2 |
| C5G U13C A17C G83U U134C A137C | ≤ -4.2 |
| U31G C123G A142G | -1.12 |
| C85U C116U G141A | -2.95 |
| C95U A107G | -4.16 |
| C27A A106C A113U C125A | ≤ -4.2 |
| A29C A52C U53A C54U C75G C129A | ≤ -4.2 |
| C27G A52G G92A | ≤ -4.2 |
| G94U A150U | -0.849 |
| A20U A40C | -0.959 |
| U53A A91G G124A U139G U146A | -3.5 |
| G25U A37C G83A U134C | -2.66 |
| A40C U55A G59A A113U C123A | -0.982 |
| U53A U55G | -3.97 |
| A20U C96U A98G | -1.71 |
| A47G G58C G112C | -3.97 |
| A40G U77G G80A C93A A107G A120C A121U | ≤ -4.2 |

| Variant | polymerase ribozyme fitness (log ratio) |
| --- | --- |
| U44G G48U G86A G100C C105A G126A U134C | ≤ -4.2 |
| U55G C108G G133U A142C | -4.19 |
| C57G A121U U135C | -2.26 |
| A22C C57A A106G G141C | -0.358 |
| G48A A52U U56A U78A A98U U139C | ≤ -4.2 |
| A12G C14U G92U U111C A138U | ≤ -4.2 |
| A39U G100C U148A | -4.2 |
| A20U C35A G92U A110U | ≤ -4.2 |
| C8U A37C C93A U151G | ≤ -4.2 |
| A47G C93G U144A | -2.58 |
| U53A G83A C114U | -3.28 |
| G50A C85G | -3.34 |
| A39U A64U C87G | ≤ -4.2 |
| G11A G92U | -1.16 |
| A16G C57A G86C G124U | -3.24 |
| C5A U45C A64U C75A G141C U145C A150U | ≤ -4.2 |
| U82C C85A U145C | 0.554 |
| U9C C14U C76A C87G | ≤ -4.2 |
| G11C A40C G42A G58U A60U C85G A89U C93G | ≤ -4.2 |
| U4A A26G A49C A107G | ≤ -4.2 |
| U13A A40U U55A C129A | ≤ -4.2 |
| A37U G58C A97G C132U | -2.67 |
| C14G G59A C87U | -3.82 |
| U15C A23C A30G U44A G70A C87A G141C | ≤ -4.2 |

| Variant | polymerase ribozyme fitness (log ratio) |
| --- | --- |
| C8A G11C A29U C95G | ≤ -4.2 |
| A30C C38A C54U A60G G84U G141A G143A | ≤ -4.2 |
| A22C A24G C51G A52C U56A A121C | ≤ -4.2 |
| G42A G88A C93G U145G C149A | ≤ -4.2 |
| U15C C38U A49G C103G G141U | ≤ -4.2 |
| C35U A47C U56G A64U A106U G133U | ≤ -4.2 |
| C35U G42A G65C U77G C87A U101G G143A U151A | ≤ -4.2 |
| U6A A12C A16U A19U C75G G84C A97G A98U U102A G124U | ≤ -4.2 |
| A19G A97U | -0.98 |
| A89C C96U | -1.26 |
| A22G C27U A47U U56G C57G U77A C93A G143A | ≤ -4.2 |
| C32U A147C | -2.55 |
| C57G G68U G94U C116G | ≤ -4.2 |
| C36U C54U C87U C96G U146G G152A | ≤ -4.2 |
| U53C U77C | ≤ -4.2 |
| C8G C10U C51A G80C C95A U102G G124U A137C | ≤ -4.2 |
| A16G U55A G74A U82G C85G | ≤ -4.2 |
| A28G A52C U55C C63A C87U A91U | ≤ -4.2 |
| C105G A107U U148C | ≤ -4.2 |
| U9G C69A U102C | ≤ -4.2 |
| C35A U44A C63U G70A G80C C87G | ≤ -4.2 |
| A12U A21U A39C G92A U109G A137G | ≤ -4.2 |
| A26C | -1.49 |

Source: the RNAGym collection of RNA variant scans (doi:10.1073/pnas.2313332121)
